According to the domain aggregation screens of Martell et al. (2025):

experiment: soluble fraction after stress (log2 fold change); higher = more stays soluble; pooled small domains, quantitative proteomics; conditions: stress: pH 4
In short: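 Aggregation propensity is estimated from the fold change in each domain's soluble amount after acid stress. Pooled small-domain libraries were stressed at pH 4, and higher log2 values mean more stayed soluble.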

Point of comparison: “HMRTITIDDSIAGKRLDEALTLLGAESSRTKVKLLFSSPNGVLVNGEKEKPHYRVEAGDVIQFGELPKK”, “soluble fraction (log2)” value -0.104. Against it:
- HMENWMPNLVNQDKRLAINTLRELGFTEEAGNLVIREETSEDVTKDYVISTDPVAETDLADVEKVTLVVSS — within 0.2 log units, -0.219
- HMKQLNKRQDDILSLAEKEGYVSVENLAKTFTVSQQTIRRDINYLSDHEFLVRTHGGAFYSSG — within 0.2 log units, -0.288
- HMKAILHQESRSGFANATVIGGLDKFLDTNWNQLSKYIKKIETPYSDRSLEDRKIWISTILGILSTEI — higher, 0.136
- HMNYGDVIEGQIMHVDRDELLVDIGSKSEGIIPAREFSTLTDEERAALSVGDHVLVFVVQAENQEGQAV — within 0.2 log units, 0.0111
- HMTGDISRALDQLPADMRTVLILYALEKQRYEDIAQITGVSVGTVKSRLNRARQKLAAILANQREQNE — within 0.2 log units, -0.101
- HMSMFTPAQVAQTLTVPPSTLRRWAKRFAPFLSPQSGKKRTYTVADLDTFQRIKELSAQGYTFAQIDQAL — within 0.2 log units, -0.101
- HMESIEGMYKISLLRKQGNAYVIFEDENKEAVEHIFPEKPTALELGTKVIEMFEYKERYDGLI — lower, -0.781
- HMEAKTSNPDYHARLGLTEGEGNDSALGVSVKAAEGGFGLLFGNKVGSDQLVRFANEDQVWLVNRALS — within 0.2 log units, 0.0693
- HMFISVDGLIHMGRTHLVILGGVEFARGDMIPETGEVVKSIGADSVVLELPDTGMRRTLNFV — lower, -1.91
- HMALMLGGLIVYLNTTAPRDDIDLIELSKDTKAMAAFGNKLASPDYNGKQFALDWHELSRDEIMSKYFS — lower, -1.82
- HMLRVVSTRQAFDIVRGWADAHPQDPEHNKTLDELEELAKKEVWDDWSRTNEIAERLNALLVSIGANVRTA — lower, -0.314
- HMAHYYVRNGYYYYQRRIPLDLRKFYSGANIKASLKTKDPAIAALFVAKFDRQYDAEFAQRRLNPD — within 0.2 log units, -0.277
- HMDVADITGTRKAAILLLTMDEELSKELLKEFERHEIEAIGKEIANIKYIPENIVKQVHSEFLKNINKS — lower, -0.752
- HMSNIVNYEVYVYQNDAWDLLARYPSEKRAEAIEYAKSTEFSLNRPTKVIRETYDLDTQKFQEALIYLSE — lower, -0.304
- HMGSLNDQVMKYIDALPSAFNKRELDFLIERGVKEFALNGEYLEKAIINEYKLTADTYHRER — higher, 0.129
- HMRDKTMLGNVIRTRRKKMNLTLEELSKQVGITSGGLSQIERGLVDPSLSVLRRISRALNLPMNVMFSE — higher, ≥ 0.43
- HMNALVAKYKQGVTEEQQQGQGIIIIKRVVVRDQEAWVYEKKIFDWGGVSYFRDKQRITASTFNQETAL — lower, -1.12
- HMLTKSELVFDTLKKRIIDGELEPGTELVISRISEEFNVSTIPVREAIKTLASEGLVEMEPHKSAKVAE — within 0.2 log units, -0.0422
- HMNDTLQEYFEALERLKSNNPINVPKNTKINNDSVALEAGRKRGSIKKSREIFAELIEAINNAS — within 0.2 log units, -0.186
- HMDSIGTQIRKLREEAEMPLRKLSALLDIDQSTLSKIERDERRANTQMIEQIAKIFKVNKEQLLVA — lower, -1.98
- HMSLTAQVFTDRGKVLLSENKFTEAIDQFTKALAMDKVYIEALNRRIEAYQHLGLTELAAKDEALLGTL — lower, -1.01
- HMVVNERIKKLRRSLDLTQQEFADRIGVKRNTIANYEIGRNEPIDSVLELIVREFGVSKQWLLDGTGEMF — within 0.2 log units, 0.0586
- HMKVSKNKIVKGMGFHHVALKAVDFDASFKFYTEGLGMKFYTSWGEGNGKIAMLDLGDGGILELFA — higher, 0.22
- HMGLPPIATGVNDNMSFSQAFAAARAEVGAGGAFEWHGRVYGTYYKNEWDGMSAQERHDFEIAAIRGS — within 0.2 log units, -0.0114
- HMIEQEQAFLEQVLKKYSQEELVLTVGSRTLVKYSAGQLERLLEHYPHVRLASSPVNGEAGFLLSRG — lower, -0.784
- HMHTPSGALLSAIEKEWGSFDNFKKEFTTAATSLFGSGWVWLAKDKKGKLYILSENNAGNPITKGYTPILG — lower, -0.432
- HMEVGDTYLGKVTRVSSFGAFIEVLPGKEGLMRQNDAGEGGMPEVGDEVMVRVMEVDHLGRINLSGKLDD — lower, -1.32
- HMNMIGDVIRNLRTVSSMTQTELGQRMGVIKQTISNWEKNISTPSIDAIVKLSSIFNVPTDYLL — within 0.2 log units, -0.178
- HMIILDASASRAIGNGTIEETKWDFGNGESSTNRGGPIVERQIYANQAAYILKLSMKTNDGQLFTKEIQLL — within 0.2 log units, -0.0529
- HMAENTIPSVIGKTLSDATFLLESYGYERGGVSEEYSEMPKGVVIRQSPQAGSSADPGTKVNLVVSLGEEI — lower, -0.692
- HMIDTPQELARLLRLLDEQNFEAEILFHKLRPDLLHLWSKEHVTRIAEALDAFDYQMALTLLNASP — lower, -2.15
- HMRLREETRKVDKTGLIQVDGRHYRVPDEYSQKDVQILMDDNSIMVYRKGDFVIELDKETSVYMPH — lower, -1.02
- HMEEMTIRQKRTMIFFIEATKHILQEDGYDHLTIREIAQRAGYNAATLYHYFRDLDELIIYGSVG — lower, -0.602
- HMGTRTILGIDPGSRKTGFGIIRLDGSRTHYVSSGVIRIPDTALPERLKIIFASLNEIIQQFQPQEV — higher, 0.107
- HMTETEIVIGGKYRHYKGGEYELVSIVKHSETLEELVIYKSLSTGEMWARPKSLFVGLVDGQPRYTL — lower, -1.39
- HMDAAYVYVIGTRVNQRAGPSTSNAVMGVLSEGTRVETLRDEGQWTQIRSNFGTGWMSSSFLSSVAP — higher, 0.124
- HMQDTQAEEGETLLDALRRIHPESSTGTLRRMLTQGRVQLDGDSVHAAKTVLSAGQRVEVVAR — within 0.2 log units, 0.088
